The experiment addresses T1, KRS WT-myc (C-terminus myc tagged KRS wild type) (human, UniProt Q15046 1-597).
T1 construct: Overexpressed in HCT116 cells and tested in lysate; The N-terminus may be cleaved in the cells under starvation; also called KRS-myc
Kind of experiment: anti-myc immunoprecipitation from starved cells, western blot for syntenin-1 (FIG. 3d). The method, then: FIG. 3d illustrates results investigating the interaction between KRS and syntenin-1 using D12A mutant. C-terminus myc tagged KRS WT and D12A mutant were transfected and overexpressed in cells, and after 24 hr, the transfectants were incubated in serum starvation media for 1 hr, followed by precipitation using anti-myc antibody, and then KRS-bound syntenin-1 was monitored by western blot (mock: control with empty vector introduced into cells).
The cells were lysed with 50 mM Tris-HCl (pH 7.4) buffer containing 150 mM NaCl, 10 mM NaF, 12 mM beta-glycerophosphate, 1 mM EDTA, 1% NP-40, 10% glycerol, and protease inhibiting agent. Then, the supernatant was dissolved in SDS sample buffer, followed by separation using SDS-PAGE. For immunoblotting of endogenous KRS, anti-KRS antibody was used. Antibodies against Hsp90, syntenin-1, GFP, myc, caspase-3, -6, -8, -9, while syntenin-1 were purchased from Santa Cruz, and antibodies against alix were purchased from Cell Signaling. The anti-KRS antibody was manufactured by ordinary procedures in which KRS protein (Genbank Accession No. NP_005539.1) represented by SEQ ID NO: 2 was injected into New Zealand white rabbits to induce immune response and their antibodies were obtained. […]
On the technique in general: Immunoblotting shows a protein as a band on a membrane.

The results in this text go back to US20170073659A1 (MEDICINAL BIOCONVERGENCE RESEARCH CENTER, published 2017).

T1 sequence (Q15046 whole entry): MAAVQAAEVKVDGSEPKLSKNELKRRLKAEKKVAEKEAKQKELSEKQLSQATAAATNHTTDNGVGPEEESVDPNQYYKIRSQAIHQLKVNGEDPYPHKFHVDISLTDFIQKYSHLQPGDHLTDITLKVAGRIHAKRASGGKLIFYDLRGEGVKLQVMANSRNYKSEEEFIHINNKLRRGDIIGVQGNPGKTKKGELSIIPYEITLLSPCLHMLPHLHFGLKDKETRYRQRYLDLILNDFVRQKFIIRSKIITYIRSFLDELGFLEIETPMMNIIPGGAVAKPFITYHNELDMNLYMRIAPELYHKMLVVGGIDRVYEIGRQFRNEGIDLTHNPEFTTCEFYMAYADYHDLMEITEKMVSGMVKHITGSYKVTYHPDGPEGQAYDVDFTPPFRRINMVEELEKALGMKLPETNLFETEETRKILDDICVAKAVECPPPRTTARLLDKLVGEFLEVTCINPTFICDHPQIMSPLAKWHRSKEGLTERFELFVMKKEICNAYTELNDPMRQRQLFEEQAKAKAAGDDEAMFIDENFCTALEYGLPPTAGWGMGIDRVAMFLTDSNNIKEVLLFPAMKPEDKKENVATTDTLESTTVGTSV

B1: syntenin-1, endogenous in HCT116 cells (other)
chain: SLYPSLEDLKVDKVIQAQTAFSANPANPAILSEASAPIPHDGNLYPRLYPELSQYMGLSLNEEEIRANVAVVSGAPLQGQLVARPSSINYMVAPVTGNDVGIRRAEIKQGIREVILCKDQDGKIGLRLKSIDNGIFVQLVQANSPASLVGLRFGDQVLQINGENCAGWSSDKAHKVLKQAFGEKITMTIRDRPFERTITMHKDSTGHVGFIFKNGKITSIVKDSSAARNGLLTEHNICEINGQNVIGLKDSQIADILSTSGTVVTITIMPAFIFEHIIKRMAPSIMKSLMDHTIPEV
B1: the binding result is “binds”.
